Here are results for 15 molecules from patent publication US20210253725A1 (BIONTECH, published 2021).

One experiment concerns the target human 4-1BB (CD137) (human, UniProt Q07011 24-255). The experiment in a line: cell-based or functional assay.
Experiment [1] addresses T1, CD134 expressed on the cell surface of HT1080_OX40 cells (human, UniProt P43489 29-277).
T1 sequence (looked up): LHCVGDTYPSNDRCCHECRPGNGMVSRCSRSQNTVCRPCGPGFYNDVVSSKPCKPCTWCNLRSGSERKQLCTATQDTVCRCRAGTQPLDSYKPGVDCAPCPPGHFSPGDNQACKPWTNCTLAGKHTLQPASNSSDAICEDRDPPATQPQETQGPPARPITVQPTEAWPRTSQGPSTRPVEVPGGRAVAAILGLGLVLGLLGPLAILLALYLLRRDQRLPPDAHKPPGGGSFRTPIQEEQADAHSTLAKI
The experiment in a line: cell-based or functional assay.

For experiment [2], the target named is T1, CD134 expressed on the cell surface of …. The experiment in a line: cell-based or functional assay. This is another data set of the same source.
For experiment [3] the target is unchanged. The experiment in a line: HT1080_OX40 cells, imaging. Note: test concentration or dose not given here.
The target in experiment [4] is T2, CD134 protein (His-tagged, Sino Biological Inc. 10481-H08H) (human, UniProt P43489 29-216).
T2 construct: bought protein coated on ELISA plates; also called OX40; TNFRSF4; not shown: His tag
T2 sequence (looked up): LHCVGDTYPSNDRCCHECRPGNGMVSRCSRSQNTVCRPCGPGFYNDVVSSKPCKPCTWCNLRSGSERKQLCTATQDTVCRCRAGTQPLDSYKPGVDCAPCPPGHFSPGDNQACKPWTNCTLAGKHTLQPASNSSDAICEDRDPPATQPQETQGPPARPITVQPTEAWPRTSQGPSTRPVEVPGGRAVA
The experiment in a line: ELISA, coated His-tagged CD134. Note: test concentration or dose not given here. A general note: In an ELISA, binding on a coated surface is turned into a signal by an enzyme label.
Throughout, for Functional assay Cross-linked by F(ab′)2 fragment IL-8: test concentration or dose not given here.
Throughout, for Functional assay IL-8: test concentration or dose not given here.

human 4-1BB (CD137), sequence (Q07011 24-255): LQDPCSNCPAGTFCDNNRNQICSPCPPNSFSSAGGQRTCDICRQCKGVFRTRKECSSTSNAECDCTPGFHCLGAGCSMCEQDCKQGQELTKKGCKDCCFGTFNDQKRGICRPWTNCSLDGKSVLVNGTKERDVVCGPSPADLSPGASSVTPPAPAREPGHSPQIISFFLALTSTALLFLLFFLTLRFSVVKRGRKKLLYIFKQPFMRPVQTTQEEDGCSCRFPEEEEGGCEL

B1: P018.S.13.A.A06 (antibody, V domains shown)
VH: QSVEESGGRLVTPGTPLTLTCTASGFTISDFHVTWVRQAPGKGLEWIGTIITSASTTAYATWARGRFTISKSSTTVNLKIVSPTTEDTATYFCARSTYTDTSGYYFDFWGQGTLVTVSS
VL: AQVLTQTASPVSAAVGGTVIINCQSSQSIYNGNRLSWYQQKPGQPPKLLIYSASTLASGVSSRFKGSGSGTQFTLAISDVQSDDAATYYCLGSYDCDSADCFAFGGGTEVVVE
In the case of B1, the “EC 50 [ng/mL] of agonistic function (IL-8 release from CD137-overexpressing HT1080 cells, antibody cross-linked by F(ab')2 goat anti-human IgG)” value (“EC 50 [ng/mL] of agonistic function” for short) with human 4-1BB (CD137) is 7790 ng/mL.

B2: P018.S.14.A.A04 (antibody, V domains shown)
VH: QSLEESGGRLVTPGTPLTLTCTVSGFSLNDYWMSWVRQAPGKGLEWIGYIDVGGSLYYASWAKGRFTISRTSTTVDLKMTSLTTEDTATYFCARGGLTYGFDLWGPGTLVTVSS
VL: DIVMTQTPASVSEPVGGTVTINCQASEDISSYLAWYQQKPGQRPKRLIYGASDLASGVPSRFSASGSGTEYALTISDLESADAATYYCHYYATISGLGVAFGGGTEVVVK
For B2, in the experiment with human 4-1BB (CD137), the “EC 50 [ng/mL] of agonistic function” value was 6790 ng/mL.

B3: P018.S.12.A.C01 (antibody, V domains shown)
VH: QEQLKESGGGLVTPGGTLTLTCTASGFTFSSHAMGWVRQAPGKGLEWIGKIYDDGTTFYANWAKGRFTISRTSTTVDLKMTSLTTEDTATYFCLRGYNSGFNFWGQGTLVTVSS
VL: AQVLTQTPASVSAAVGGTVTISCQSSESVYNNNFLAWYQQKPGQPPKLLIYLASTLASGVPSRFSGSGSGTEFTLTISDLDSDDAATYYCAGGYDDNVYGFGGGTEVVVK
notes: V regions on human Ig constant parts; also called AB134_61
For B3, in experiment [1], the “Functional assay Cross-linked by F(ab′)2 fragment IL-8” value (“Functional assay Cross-linked” below) was 2.06 abs. corr and the “Functional assay IL-8” value is -0.026 abs. corr. For the same molecule, in experiment [2], the “EC 50 (IL-8 release, cross-linked)” value was found to be 0.431 µg/mL. Also, in experiment [3], the “Cellular binding assay [RFU]” value is 496 RFU. Further, the “ELISA [abs. corr.]” value in experiment [4] amounted to 2.49 abs. corr.

B4: P018.S.02.A.H03 (antibody, V domains shown)
VH: QSLEESGGRLVTPGGSLTLTCTVSGIDLSSYGMGWVRQAPGKGLEWIGTISYGGSTFYANWVKGRFTISKTSTTVDLKVTSLTTEDAATYFCAREVPYWSLWGQGTLVTVSS
VL: AYDMTQTPASVAAAVGGTVTIKCQASQSIGSDLSWYQQKRGQPPKLLIYDASTLASGVPSRFKGSGSGTEFTLTISDVQSADAATVYCQQDYSYRNVDNTFGGGTEVVVK
notes: V regions on human Ig constant parts; also called AB134_3
Take B4: in experiment [1], the “Functional assay Cross-linked” value is 1.95 abs. corr and the “Functional assay IL-8” value turned out to be 2.56 abs. corr. Besides, in experiment [2], the “EC 50 (IL-8 release, cross-linked)” value came to 0.215 µg/mL. The “Cellular binding assay [RFU]” value in experiment [3] was 198 RFU. The “ELISA [abs. corr.]” value in experiment [4] was 0.468 abs. corr.

B5: P018.S.13.A.A05 (antibody, V domains shown)
VH: QSLEESGGRLVTPGTPLTLTCTASGFSLSRYDMSWVRQAPGKGLEYIGVISSSGGTNYANWAKGRFTISKTSTTVDLKITSPTTEDTATYFCAREGDYWDFNLWGPGTLVTVSS
VL: AQVLTQTPSSVSAAVGGTVTINCQASQSISNLLAWYQQKPGQPPKLLIYGASTLASGVPSRFSGSGSGTEFTLTISDLESDDAATYYCAGGFPGLDTVAAFGGGTEAVVT
Regarding B5, the “EC 50 [ng/mL] of agonistic function” value with human 4-1BB (CD137) stood at 3720 ng/mL.

B6: P018.S.14.A.H01 (antibody, V domains shown)
VH: QSVEESGGRLVTPGTPLTLTCTVSGFSLSDYYMTWVRQAPGKGLEYIGIMSGSGSTYYASWAKGRFTISKTSSTTLELKITSPTTEDTAIYFCARDGDYAGWGYATGAFDPWGPGTLVTVSS
VL: AAVLTQTPSPVSAAVGGTVTISCQASQSVVGNSLLSWFQKKPGQPPKLLIYSASSLASGVPSRFKGSGSGTQFTLTISDLESDDAATYYCTGRYNSDTDTFVFGGGTEVVVK
Turning to B6, the “EC 50 [ng/mL] of agonistic function” value with human 4-1BB (CD137) came to 5820 ng/mL.

B7: P018.S.13.A.C02 (antibody, V domains shown)
VH: QSVEESGGRLVTPGTPLTLTCTVSGFSLSSYAMSWVRQAPGKGLEWIGIISTSGITYYASWAKGRFTISKTSTMVDLKITSPTTEDTATYFCARLNGFDDYVRYFDFWGLGTLVTVSS
VL: AIELTQTPSSVSAAVGGTVTINCQASESIASNLAWYQQKPGQPPKLLIYAASYLASGVPSRFKGSGSGTEYTLTISGVQSADAATYYCQSAFYVSSSDNAFGGGTEVVVK
Regarding B7, the “EC 50 [ng/mL] of agonistic function” value with human 4-1BB (CD137) was 3500 ng/mL.

B8: P018.S.11.A.D03 (antibody, V domains shown)
VH: QEQLKETGGGLVQPGGSLTLSCKASGFDFSSGYMSWVRQAPGKGLEWIGYIDPVFGSTYYASWVNGRFAISSHNAQNTLYLQLNSLTAADTATYFCARDLRAFYSGWGGINLWGPGTLVTVSS
VL: AAVLTQTPSPVSAAVGGTVTIKCQSSQIVVNNNFLSWYQQKPGQPPKLLIYDASNLASGVPDRFSGSGSGTQFTLTISGVQSDDAATYYCLGGYDDDAENAFGGGTEVVVQ
notes: V regions on human Ig constant parts; also called AB134_30
With B8, in experiment [1], the “Functional assay Cross-linked” value stood at 1.86 abs. corr and the “Functional assay IL-8” value amounted to 2.24 abs. corr. For the same molecule, in experiment [2], the “EC 50 (IL-8 release, cross-linked)” value turned out to be 0.176 µg/mL. In addition, the “Cellular binding assay [RFU]” value in experiment [3] was found to be 482 RFU. Moreover, the “ELISA [abs. corr.]” value in experiment [4] came to 1.99 abs. corr.

B9: P018.S.05.A.F05 (as anti-CD134 antibody) (antibody, V domains shown)
VH: QSVEESGGRLVTPGTPLTLTCTVSGFSLSNYYMTWVRQAPGKGLEYIGIIGSGVSTYYANWAKGRFTISKASSTTVDLKMTSPTTEDTATYFCARDMYVGNWGDWGLWGQGTLVTVSS
VL: AYDMTQTPASVEVAVGGTVTIKCQASQSISNNLNWYQQKPGQPPKLLIYSVSTLASGVPSRFKGSGSGTDYTLTISGVESVDAATYYCQQDYRIGDLDSAFGGGTEVVVK
notes: V regions on human Ig constant parts; also called AB134_16
For the molecule B9, in experiment [1], the “Functional assay Cross-linked” value was found to be 1.71 abs. corr and the “Functional assay IL-8” value is 0.187 abs. corr. In addition, the “EC 50 (IL-8 release, cross-linked)” value in experiment [2] came out at 7.12 µg/mL. In experiment [3], the “Cellular binding assay [RFU]” value was found to be 392 RFU. Moreover, the “ELISA [abs. corr.]” value in experiment [4] is 2.41 abs. corr.

B10: P018.S.14.A.G03 (antibody, V domains shown)
VH: QSLEESGGRLVTPGTPLTLTCTVSGIDLSSYHMCWVRQAPGKGLEYIGYIAYGGNTYYANWAKGRFTISKTSTTVDLRITSPTTEDTATYFCARGYSEDSYWGLWGPGTLVTVSS
VL: AYDMTQTPASVEAAVGGTVTIKCQASQNIENYLAWYQQKPGQPPKLLIYDTSKLTSGVPSRFSGSGSGTDFTLTISGVQSDDAATYYCQQDYGIIFVDNIFGGGTEVVVK
With B10, the “EC 50 [ng/mL] of agonistic function” value in the experiment with human 4-1BB (CD137) was 3500 ng/mL.

B11: P018.S.08.A.A04 (antibody, V domains shown)
VH: QSVEESGGRLVTPGTPLTLTCTVSGFSLSSYAVSWVRQAPGKGLEWIGVIWNNGATHYATWAKGRFTISKASTTVDLKVTSPTTEDTATYFCARSANDAWSTYSDLWGQGTLVTVSS
VL: DIVMTQTPASVEAAVGGTVTIKCQASQTITNYLSWYQQKPGQPPKLLIYKASTLTSGVSSRFKGSGSGTEFTLTISDLESDDAATYYCQNYYYGSSSGYGFVFGGGTEVVVK
In the case of B11, in the experiment with human 4-1BB (CD137), the “EC 50 [ng/mL] of agonistic function” value is 5150 ng/mL.

B12: P018.S.14.A.D06 (antibody, V domains shown)
VH: QSVEESGGRLVTPGTPLTLTCTVSGFSLSTYAMIWVRQAPGKGLEWIGVVYDNGYISHATWVKGRFTISKTSTTVGLEITSPTTEDTATYFCARSADGSWSTYFNLWGQGTLVTVSS
VL: DIVMTQTPASVEAAVGGTVTIKCQASESISNYLAWYQQKPGQPPKLLIYKASTLASGVSSRFKGSGSGTEFTLTISDLESADAATYYCQTNYCCSSSDNGFAFGGGTEVVVK
In the case of B12, the “EC 50 [ng/mL] of agonistic function” value with human 4-1BB (CD137) turned out to be 10200 ng/mL.

B13: P018.S.08.A.F03 (antibody, V domains shown)
VH: QSVEESGGRLVTPGTPLTLTCTASGFTISSYHMIWVRQAPGEGLEWIGDIYGGTATTDYASWAKGRFTISKTSTTVDLKMTSLTTEDTATYFCARARYSGGSYANYVFNLWGQGTLVTVSS
VL: DIVMTQTPASVEAAVGGTVTIKCQASQSISSYLAWYQQKPGQPPKLLIYRTSTLESGVPSRFKGSGSGTEFTLTISDLESADAATYYCQGYDWSSSNRYDNTFGGGTEVVVK
With B13, the “EC 50 [ng/mL] of agonistic function” value with human 4-1BB (CD137) is 2710 ng/mL.

B14: P018.S.08.A.E03 (antibody, V domains shown)
VH: QSVEESGGRLVTPGTPLTLTCTVSGFSLTYYAVTWVRQPPGKGLEWIGVIYDNGATAFATWAKGRFTMSKNSTTVALKVTSPTTEDTATYFCARSANNAWSTYSNLWGQGTLVTVSS
VL: DIVMTQTPSSVSAAVGGTVTINCQASEDISSYLSWYQQKLGQPPKLLIYKASTLESGVPSRFKGSGSGTEYTLTISDLESDDAATYYCQSYYSGSISGYGFVFGGGTGVVVK
On to B14, for which, in the experiment with human 4-1BB (CD137), the “EC 50 [ng/mL] of agonistic function” value was found to be 4960 ng/mL.

B15: P018.S.13.A.G03 (antibody, V domains shown)
VH: QSLEESGGRLVTPGTPLTLTCTASGFSLSSYDVSWVRQAPGKGLEYIGFIGSDGSAHYATWVKGRFTISKTSTTVDLKITSPTTEDTATYFCARDWNDYWAHDLWGPGTLVTVSS
VL: AQVLTQTTSPVSAAVGGTVTINCQASQIVTSKSALSWYQQKPGQPPRLLIYKASTLASGVPSRFSGSGSGTQFTLTISDLESDDAATYYCAGGYYNSGDLNPFGGGTEVVVK
With B15, the “EC 50 [ng/mL] of agonistic function” value in the experiment with human 4-1BB (CD137) turned out to be 4780 ng/mL.
